Results taken from PMC10304631 (Pharmaceutics, 2023).

How the values were obtained:
[1] = predicted log P; ref Drugbank.com and pubchem.ncbi.nlm.nih.gov (accessed on 3 January 2023); cited from earlier work
Caco-2 cells [2] = test: PEN-mediated uptake of TAMRA-insulin by confocal microscopy (CLSM); type: cell-based, human; conditions: undifferentiated Caco-2 cells; 5 µM TAMRA-insulin alone, pH 7.4, 1 h
Caco-2 cells [3] = test: PEN-mediated uptake of TAMRA-insulin by flow cytometry; type: cell-based, human; conditions: 5 µM TAMRA-insulin alone or with 20 µM PEN, 1 h, 37 °C, mean ± SD, N = 2, n = 3
Experimental: The controls were incubated with a buffer without CPP or insulin. The cells were kept on a shaking table (37 °C, 50 rpm) for 1 h. Hereafter, the test solutions were removed, and the cells were washed twice with cold phosphate-buffered saline (4 °C) and trypsinized for 10–15 min. Trypsinization was terminated by the addition of excess cold hHBSS (4 °C) containing 10% (v/v) FBS (hHBSS/FBS). The cells were then collected and centrifuged at 4000 rpm (1076× g, 4 °C). The supernatant was removed, and the cells were washed once with hHBSS/FBS and centrifuged again at the same conditions before suspension in hHBSS/FBS containing 0.3% (v/v) DRAQ7 as a marker of the plasma membrane’s integrity. To quench extracellular plasma membrane-associated fluorescence, a parallel experiment was performed using the same test solutions, with the addition of trypan blue (TB) at a final concentration of 0.1% (v/v) just prior to analysis.

Row | Molecule | Log P [1] | Uptake of TAMRA-insulin (CLSM) (Caco-2 cells [2]) | MFI (A.N.) of TAMRA-insulin (Caco-2 cells [3]; pH 6.5, with Trypan Blue (0.1% v/v)) | MFI (A.N.) of TAMRA-insulin (Caco-2 cells [3]; pH 7.4, with Trypan Blue (0.1% v/v)) | MFI (A.N.) of TAMRA-insulin (Caco-2 cells [3]; pH 7.4, without Trypan Blue)
1 | Vancomycin | −4.4 |  |  |  | 
2 | TAMRA-Insulin: insulin labeled with TAMRA (5/6-carboxy-tetramethyl-rhodamine succinimidyl ester) |  | uptake was absent | 49.6 ± 1.9 A.N. | 40.8 ± 2.6 A.N. | 41.2 ± 2.9 A.N.
3 | OC[C@@H](O)[C@@H](O)[C@H](O)[C@H](O)CO [Mannitol] | −3.7 |  |  |  | 
